Earlier results on one substance are cited in paper PMC7226344.

The Kd is the constant that tells how readily two partners part at equilibrium.

The target in data set [1] is Cav3.1 (Rattus norvegicus) (UniProt O54898).
The next data set addresses Cav3.2 (Homo sapiens) (UniProt O95180).
UniProt O95180, sequence (O95180 whole entry): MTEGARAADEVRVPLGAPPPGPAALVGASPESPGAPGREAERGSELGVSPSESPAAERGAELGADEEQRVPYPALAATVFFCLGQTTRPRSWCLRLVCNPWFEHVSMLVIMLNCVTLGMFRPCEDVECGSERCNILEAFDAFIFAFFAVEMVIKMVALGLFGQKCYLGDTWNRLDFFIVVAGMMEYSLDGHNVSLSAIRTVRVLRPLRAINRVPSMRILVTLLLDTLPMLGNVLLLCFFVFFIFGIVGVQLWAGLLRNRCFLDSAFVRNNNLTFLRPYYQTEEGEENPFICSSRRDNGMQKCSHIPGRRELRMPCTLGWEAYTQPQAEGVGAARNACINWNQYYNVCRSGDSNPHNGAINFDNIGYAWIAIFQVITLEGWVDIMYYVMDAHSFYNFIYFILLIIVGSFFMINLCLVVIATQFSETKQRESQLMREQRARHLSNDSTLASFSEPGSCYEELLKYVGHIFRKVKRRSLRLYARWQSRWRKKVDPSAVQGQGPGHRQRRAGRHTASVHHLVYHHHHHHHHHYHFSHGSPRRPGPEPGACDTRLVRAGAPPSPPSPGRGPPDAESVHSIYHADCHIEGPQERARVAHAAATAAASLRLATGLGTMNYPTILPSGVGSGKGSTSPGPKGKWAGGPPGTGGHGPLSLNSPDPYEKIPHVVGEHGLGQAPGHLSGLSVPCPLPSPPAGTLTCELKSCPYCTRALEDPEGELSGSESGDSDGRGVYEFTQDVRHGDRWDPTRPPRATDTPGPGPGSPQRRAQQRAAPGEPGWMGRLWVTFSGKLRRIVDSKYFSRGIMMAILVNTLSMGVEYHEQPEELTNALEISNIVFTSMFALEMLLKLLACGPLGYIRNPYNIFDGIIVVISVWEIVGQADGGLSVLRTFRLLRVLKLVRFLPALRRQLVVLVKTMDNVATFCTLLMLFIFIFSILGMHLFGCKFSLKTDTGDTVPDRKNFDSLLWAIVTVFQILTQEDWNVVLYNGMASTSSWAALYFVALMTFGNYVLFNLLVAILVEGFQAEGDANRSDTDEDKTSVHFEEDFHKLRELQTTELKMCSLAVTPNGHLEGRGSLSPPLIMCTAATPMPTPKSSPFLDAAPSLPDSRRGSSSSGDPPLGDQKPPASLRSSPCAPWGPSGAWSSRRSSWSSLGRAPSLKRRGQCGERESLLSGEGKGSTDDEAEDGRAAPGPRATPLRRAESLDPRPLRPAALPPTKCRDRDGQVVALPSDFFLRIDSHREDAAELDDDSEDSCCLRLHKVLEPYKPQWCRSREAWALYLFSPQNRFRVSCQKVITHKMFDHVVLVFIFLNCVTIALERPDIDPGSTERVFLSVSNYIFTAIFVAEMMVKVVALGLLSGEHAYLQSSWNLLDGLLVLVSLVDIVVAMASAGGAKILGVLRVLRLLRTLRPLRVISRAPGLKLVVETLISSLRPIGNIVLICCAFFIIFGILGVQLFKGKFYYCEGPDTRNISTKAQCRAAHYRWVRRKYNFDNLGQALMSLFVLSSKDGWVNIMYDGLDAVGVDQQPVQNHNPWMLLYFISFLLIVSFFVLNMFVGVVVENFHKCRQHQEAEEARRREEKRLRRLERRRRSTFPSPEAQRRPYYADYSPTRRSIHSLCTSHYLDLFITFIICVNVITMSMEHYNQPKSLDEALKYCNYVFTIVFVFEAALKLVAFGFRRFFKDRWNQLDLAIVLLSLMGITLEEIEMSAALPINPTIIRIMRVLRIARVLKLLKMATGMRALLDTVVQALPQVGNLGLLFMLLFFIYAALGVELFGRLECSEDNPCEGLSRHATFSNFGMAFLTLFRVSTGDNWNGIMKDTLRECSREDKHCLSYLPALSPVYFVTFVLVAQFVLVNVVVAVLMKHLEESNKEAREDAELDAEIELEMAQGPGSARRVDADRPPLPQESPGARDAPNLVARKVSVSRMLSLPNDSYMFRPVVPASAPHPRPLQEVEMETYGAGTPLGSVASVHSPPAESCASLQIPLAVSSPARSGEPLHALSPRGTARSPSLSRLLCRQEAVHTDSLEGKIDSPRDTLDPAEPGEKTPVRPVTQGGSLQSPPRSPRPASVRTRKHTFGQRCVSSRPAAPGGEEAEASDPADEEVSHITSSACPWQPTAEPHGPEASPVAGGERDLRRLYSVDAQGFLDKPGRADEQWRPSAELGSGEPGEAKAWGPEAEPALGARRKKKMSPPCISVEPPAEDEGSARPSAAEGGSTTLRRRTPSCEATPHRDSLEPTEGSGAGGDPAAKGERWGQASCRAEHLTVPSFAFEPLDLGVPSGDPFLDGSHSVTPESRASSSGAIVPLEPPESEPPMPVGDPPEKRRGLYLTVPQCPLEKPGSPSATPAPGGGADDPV

UniProt O54898, sequence (O54898 whole entry): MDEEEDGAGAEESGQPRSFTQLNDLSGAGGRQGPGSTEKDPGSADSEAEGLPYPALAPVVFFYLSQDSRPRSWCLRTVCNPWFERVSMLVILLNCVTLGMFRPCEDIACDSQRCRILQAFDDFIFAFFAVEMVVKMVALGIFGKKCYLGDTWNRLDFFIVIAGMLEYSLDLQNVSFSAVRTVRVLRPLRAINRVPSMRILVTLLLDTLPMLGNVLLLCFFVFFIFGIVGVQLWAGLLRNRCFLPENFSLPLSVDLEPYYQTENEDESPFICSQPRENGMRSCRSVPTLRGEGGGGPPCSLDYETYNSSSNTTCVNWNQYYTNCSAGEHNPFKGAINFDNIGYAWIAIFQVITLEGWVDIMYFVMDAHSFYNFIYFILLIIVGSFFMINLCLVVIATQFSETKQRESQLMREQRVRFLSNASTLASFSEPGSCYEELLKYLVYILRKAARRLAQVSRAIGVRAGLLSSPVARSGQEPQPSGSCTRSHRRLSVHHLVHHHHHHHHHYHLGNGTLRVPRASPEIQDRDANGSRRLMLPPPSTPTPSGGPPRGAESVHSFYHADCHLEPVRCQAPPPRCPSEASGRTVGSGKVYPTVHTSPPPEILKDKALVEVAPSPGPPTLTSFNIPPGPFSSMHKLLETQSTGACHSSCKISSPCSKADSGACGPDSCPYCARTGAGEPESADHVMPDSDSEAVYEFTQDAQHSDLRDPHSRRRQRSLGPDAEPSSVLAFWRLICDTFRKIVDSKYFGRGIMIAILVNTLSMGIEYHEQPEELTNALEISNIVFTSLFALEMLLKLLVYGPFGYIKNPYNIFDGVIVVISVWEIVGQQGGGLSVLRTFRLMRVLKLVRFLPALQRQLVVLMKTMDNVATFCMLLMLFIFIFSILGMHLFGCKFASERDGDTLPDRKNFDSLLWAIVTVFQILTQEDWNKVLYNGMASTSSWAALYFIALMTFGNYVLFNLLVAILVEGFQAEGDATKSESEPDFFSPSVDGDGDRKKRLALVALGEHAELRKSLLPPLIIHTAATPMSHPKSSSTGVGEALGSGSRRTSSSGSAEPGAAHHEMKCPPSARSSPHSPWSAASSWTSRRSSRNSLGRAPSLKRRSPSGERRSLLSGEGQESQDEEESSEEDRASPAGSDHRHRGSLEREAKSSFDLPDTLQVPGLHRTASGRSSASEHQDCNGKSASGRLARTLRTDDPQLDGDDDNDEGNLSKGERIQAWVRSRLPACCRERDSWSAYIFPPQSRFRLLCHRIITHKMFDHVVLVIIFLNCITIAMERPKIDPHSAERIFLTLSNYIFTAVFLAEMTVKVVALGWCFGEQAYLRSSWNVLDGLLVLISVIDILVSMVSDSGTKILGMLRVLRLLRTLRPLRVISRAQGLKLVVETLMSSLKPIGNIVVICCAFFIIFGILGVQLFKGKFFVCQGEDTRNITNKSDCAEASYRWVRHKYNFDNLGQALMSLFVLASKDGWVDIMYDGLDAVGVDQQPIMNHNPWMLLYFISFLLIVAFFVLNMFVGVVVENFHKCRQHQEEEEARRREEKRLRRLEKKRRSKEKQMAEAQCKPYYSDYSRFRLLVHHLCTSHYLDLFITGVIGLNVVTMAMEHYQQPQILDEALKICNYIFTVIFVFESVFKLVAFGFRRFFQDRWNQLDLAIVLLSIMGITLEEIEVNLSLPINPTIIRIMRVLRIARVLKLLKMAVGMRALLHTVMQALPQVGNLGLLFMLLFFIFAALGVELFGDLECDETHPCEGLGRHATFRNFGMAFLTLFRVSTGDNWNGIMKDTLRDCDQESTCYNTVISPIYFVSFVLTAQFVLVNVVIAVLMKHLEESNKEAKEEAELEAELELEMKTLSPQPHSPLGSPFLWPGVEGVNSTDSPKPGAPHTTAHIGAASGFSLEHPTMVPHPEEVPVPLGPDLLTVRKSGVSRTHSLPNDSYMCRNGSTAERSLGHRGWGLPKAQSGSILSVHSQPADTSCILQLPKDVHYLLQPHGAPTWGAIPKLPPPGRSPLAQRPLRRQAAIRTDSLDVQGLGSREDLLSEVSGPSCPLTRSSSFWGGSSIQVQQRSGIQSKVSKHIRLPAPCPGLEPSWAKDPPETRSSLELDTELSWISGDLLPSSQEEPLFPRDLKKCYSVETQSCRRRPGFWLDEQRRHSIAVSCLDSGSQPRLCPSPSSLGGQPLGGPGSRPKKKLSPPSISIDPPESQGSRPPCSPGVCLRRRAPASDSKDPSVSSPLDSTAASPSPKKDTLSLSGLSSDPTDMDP

Take kurtoxin (from UniProt P58910): the Kd in data set [1] is 15 nM; with Cav3.2 (Homo sapiens), 61 nM.
